B1: RmXAL: enzyme from Rhodotorula mucilaginosa/Rhodotorula rubra with tyrosine ammonia lyase activity (protein, listed as Rhodotorula mucilaginosa)
chain: MAPSVDSIATSVANSLSNGLHAAAAANGGDVHKKTAGAGSLLPTTETTQLDIVERILADAGATDQIKLDGYTLTLGDVVGAARRGRSVKVADSPHIREKIDASVEFLRTQLDNSVYGVTTGFGGSADTRTEDAISLQKALLEHQLCGVLPTSMDGFALGRGLENSLPLEVVRGAMTIRVNSLTRGHSAVRIVVLEALTNFLNHGITPIVPLRGTISASGDLSPLSYIAASITGHPDSKVHVDGKIMSAQEAIALKGLQPVVLGPKEGLGLVNGTAVSASMATLALTDAHVLSLLAQALTALTVEAMVGHAGSFHPFLHDVTRPHPTQIEVARNIRTLLEGSKYAVHHETEVKVKDDEGILRQDRYPLRCSPQWLGPLVSDMIHAHAVLSLEAGQSTTDNPLIDLENKMTHHGGAFMASSVGNTMEKTRLAVALMGKVSFTQLTEMLNAGMNRALPSCLAAEDPSLSYHCKGLDIAAAAYTSELGHLANPVSTHVQPAEMGNQAINSLALISARRTAEANDVLSLLLATHLYCVLQAVDLRAMEFEHTKAFEPMVTELLKQHFGALATAEVEDKVRKSIYKRLQQNNSYDLEQRWHDTFSVATGAVVEALAGQEVSLASLNAWKVACAEKAIALTRSVRDSFWAAPSSSSPALKYLSPRTRVLYSFVREEVGVKARRGDVYLGKQEVTIGTNVSRIYEAIKSGCIAPVLVKMMA
B2: RsTAL: tyrosine ammonia-lyase from Rhodobacter sphaeroides (protein)
chain: MLAMSPPKPAVELDRHIDLDEAHSVASGGARIVLAPPARDRCRASEARLGAVIREARHVYGLTTGFGPLANRLVSGENVRTLQANLVHHLASGVGPVLDWTTARAMVLARLVAIAQGASGASEGTIARLIDLLNSELAPAVPMRGTVGASGDLTPLAHMVLCLQGRGDFLDRDGTRLDGAEGLRRGRLQPLDLSHRDALALVNGTSAMTGIALVNAHACRHLGNWAVALTALLAECLGGRTEAWAAALSDLRPHPGQKDAAARLRARVDGSARVVRHVIAERRLGASDIGTEPEAGQDAYSLRCAPQVLGAGFDTLAWHDRVLTIELNAVTDNPVFPPDGSVPALHGGNFMGQHVALTSDALATAVTVLAGLAERQIARLTDERLNRGLPPFLHRGPAGLNSGFMGAQVTATALLAEMRATGPASIHSISTNAANQDVVSLGTIAARLCREKIDRWAEILAILALCLAQAAELRCGSGLDGVSPAGKKLVQALREQFPPLETDRPLGQEIAALATHLLQQSPV
modifications: Rhodobacter sphaeroides
B3: RcTAL: tyrosine ammonia-lyase from Rhodobacter capsulatus (protein, listed as Rhodobacter capsulatus)
chain: MLDATIGRKRMTLQSQTAKDCLALDGALTLVQCEAIATHRSRISVTPALRERCARAHARLEHAIAEQRHIYGITTGFGPLANRLIGADQGAELQQNLIYHLATGVGPKLSWAEARALMLARLNSILQGASGASPETIDRIVAVLNAGFAPEVPAQGTVGASGDLTPLAHMVLALQGRGRMIDPSGRVQEAGAVMDRLCGGPLTLAARDGLALVNGTSAMTAIAALTGVEAARAIDAALRHSAVLMEVLSGHAEAWHPAFAELRPHPGQLRATERLAQALDGAGRVCRTLTAARRLTAADLRPEDHPAQDAYSLRVVPQLVGAVWDTLDWHDRVVTCELNSVTDNPIFPEGCAVPALHGGNFMGVHVALASDALNAALVTLAGLVERQIARLTDEKLNKGLPAFLHGGQAGLQSGFMGAQVTATALLAEMRANATPVSVQSLSTNGANQDVVSMGTIAARRARAQLLPLSQIQAILALALAQAMDLLDDPEGQAGWSLTARDLRDRIRAVSPGLRADRPLAGDIEAVAQGLRHPSAADPPA
B4: FjTAL: tyrosine ammonia-lyase from Flavobacterium johnsoniae (protein, listed as Flavobacterium johnsoniae)
chain: MNTINEYLSLEEFEAIIFGNQKVTISDVVVNRVNESFNFLKEFSGNKVIYGVNTGFGPMAQYRIKESDQIQLQYNLIRSHSSGTGKPLSPVCAKAAILARLNTLSLGNSGVHPSVINLMSELINKDITPLIFEHGGVGASGDLVQLSHLALVLIGEGEVFYKGERRPTPEVFEIEGLKPIQVEIREGLALINGTSVMTGIGVVNVYHAKKLLDWSLKSSCAINELVQAYDDHFSAELNQTKRHKGQQEIALKMRQNLSDSTLIRKREDHLYSGENTEEIFKEKVQEYYSLRCVPQILGPVLETINNVASILEDEFNSANDNPIIDVKNQHVYHGGNFHGDYISLEMDKLKIVITKLTMLAERQLNYLLNSKINELLPPFVNLGTLGFNFGMQGVQFTATSTTAESQMLSNPMYVHSIPNNNDNQDIVSMGTNSAVITSKVIENAFEVLAIEMITIVQAIDYLGQKDKISSVSKKWYDEIRNIIPTFKEDQVMYPFVQKVKDHLINN
B5: SULT1A1 Homo sapiens, RmXAL: SULT1A1 from Homo sapiens co-expressed with tyrosine ammonia lyase RmXAL in E. coli (protein, UniProt P50225 1-295, looked up)
Sulfotransferase 1A1: MELIQDTSRPPLEYVKGVPLIKYFAEALGPLQSFQARPDDLLISTYPKSGTTWVSQILDMIYQGGDLEKCHRAPIFMRVPFLEFKAPGIPSGMETLKDTPAPRLLKTHLPLALLPQTLLDQKVKVVYVARNAKDVAVSYYHFYHMAKVHPEPGTWDSFLEKFMVGEVSYGSWYQHVQEWWELSRTHPVLYLFYEDMKENPKREIQKILEFVGRSLPEETVDFVVQHTSFKEMKKNPMTNYTTVPQEFMDHSISPFMRKGMAGDWKTTFTVAQNERFDADYAEKMAGCSLSFRSEL
modifications: co-expressed with RmXAL
notes: SULT1A1 from Homo sapiens co-expressed with tyrosine ammonia lyase RmXAL in E. coli

Columns and labels:
[1] = system: tyrosine; assay: pHCA and zosteric acid in culture media of E. coli expressing an aryl sulfotransferase in combination with a tyrosine ammonia lyase; type: cell-based, Escherichia coli; conditions: M9 glucose, 0.1 mM IPTG, no substrate added
Method: (§1) The concentration of p-courmaric acid (pHCA) and zosteric acid in the supernatant was quantified by high performance (HPLC) and compared to chemical standards. HPLC was done on a Thermo setup using a HS-F5 column and mobile phases: 5 mM ammonium formate pH 4.0 (A) and acetonitrile (B) at 1.5 mL min-1, using a gradient elution starting at 5% B. From 0.5 min after injection to 7 min, the fraction of B increased linearly from 5% to 60%, and between 9.5 min and 9.6 the fraction of B decreased back to 5%, and remaining there until 12 min. pHCA and zosteric acid were quantified by measuring absorbance at 277 nm.
The enzyme RmXAL from Rhodotorula mucilaginosa/Rhodotorula rubra (SEQ ID NO: 20) has tyrosine ammonia lyase activity, thus catalyzing the non-oxidative deamination of the amino acid tyrosine, releasing p-coumaric acid (pHCA) and ammonia. The gene encoding RmXAL was codon optimized using standard algorithms for expression in E. coli available by GeneArt (Life Technologies) and amplified by PCR using the primers shown in table 5 and inserted into the pCDFDuet-1 vector (Novagen/Life Technologies), which had been digested by the restriction enzymes NdeI and BgIII, using Gibson reaction (New England Biolabs). FIG. 4 provides an image of the plasmid expressing RmXAL.
The resulting plasmid was co-transformed into E. coli BL21(DE3)pLysS cells (Life Technologies) alone or together with the plasmid expressing SULT1A1 from Homo sapiens (example 1). The resulting strains was grown in M9 media with glucose as a carbon source, with 0.1 mM IPTG for induction of gene expression. Samples were taken as described previously (example 1) for analysis of product formation. […] RmXAL allowed the production of pHCA without addition of any substrate, thus providing a heterologous pathway from the cells normal metabolism to a heterologous product. The additional expression of an aryl sulfotransferase, exemplified by SULT1A1 from Homo sapiens, allowed the in vivo conversion of pHCA to zosteric acid. Thus, an aryl sulfotransferase can act upon a compound produced in vivo and the cells can release the resulting sulfated product to the medium.

[2] = system: tyrosine; assay: In vivo supply of p-coumaric acid by tyrosine ammonia-lyases co-expressed with SULT1A1 rat in E. coli; type: cell-based, Escherichia coli; conditions: M9 0.2% glucose, 2 mM tyrosine, 1 mM IPTG, overnight 37° C., supernatant
Method: as §1
The genes encoding the tyrosine ammonia-lyases RcTAL (from Rhodobacter capsulatus; SEQ ID NO: 48), RsTAL (from Rhodobacter sphaeroides; SEQ ID NO: 17) and FjTAL (from Flavobacterium johnsoniae; SEQ ID NO: 14) were cloned into expression vectors as follows. Genes (SEQ ID NO: 49, 50, and 51, respectively) were optimized for E. coli and synthesized by GeneArt, amplified by PCR using the oligonucleotides shown in the table below, and cloned into pCDFDuet-1 (Novagen): The plasmid was digested with NdeI and BgIII and gel purified. The genes were inserted by isothermal assembly using Gibson Assembly Master Mix (New England Biolabs), and transformed into chemically competent DH5a (laboratory strain) or NEB5α (New England Biolabs), selecting for resistance to 50 μg mL^−1 spectinomycin in LB medium. Resulting plasmids pCBJ215 (RsTAL), pCBJ228 (FjTAL) and pCBJ297 (RcTAL) (FIGS. 6 to 8, respectively) were co-transformed by electroporation into the E. coli expression strain BL21(DE3) (Invitrogen/Life Technologies) together with a pETDuet-1-based plasmid expressing SULT1A1 from rat (Example 1). Transformation cultures were plated on LB containing 50 μg mL^−1 spectinomycin and 100 μg mL^−1 ampicillin. A control strain carrying pCDFDuet-1 was also made.
Strains harboring recombinant plasmids were pre-cultured in 2×YT liquid medium with 100 μg mL^−1 ampicillin and 50 μg mL^−1 spectinomycin and incubated at 37° C. and 250 rpm overnight. The following day, each pre-culture was transferred into 5 ml of M9 minimal medium with 0.2% glucose, 2 mM tyrosine and 1 mM IPTG for induction of expression. Cultures were placed in an incubator at 37° C. with shaking at 250 rpm overnight. The supernatants were then collected by centrifugation twice and applied to HPLC analysis as described in example 1, and the titers of p-coumaric acid (pHCA) and zosteric acid (ZA) were quantified using chemical standards and are presented in the table below.

Row | Molecule | Zosteric acid formed [1] | pHCA [1] | μM ZA [2] | μM pHCA [2]
1 | B1 | Not detectable | 0.04 mM | – | –
2 | B2 | – | – | <1 µM | 78 μM
3 | B3 | – | – | <1 µM | 20 μM
4 | B4 | – | – | 16 µM | 398 μM
5 | B5 | 0.01 mM | 0.02 mM | – | –

Reference: patent publication US11390894B2, “Biological processes for the production of aryl sulfates” (CysBio ApS, priority 2014, dated 2022)
